Test results as given in patent publication US7790697B2, “Compositions and methods for inhibiting the synthesis or expression of MMP-1” (Trustees of Dartmouth College, priority 2004, dated 2010).

What was measured:
MMP-1 protein = experiment: ELISA for MMP-1 protein in serum-free medium of stable MDA-231 cells; format: cell-based, human; conditions: for ng of MMP-1 protein per μg of total protein: average ± S.D.
Method: ELISA for MMP-1 Protein. MMP-1 protein in serum-free culture medium of stably transfected MDA-231 cells was quantified with the human MMP-1 BIOTRAK™ ELISA system that measures both latent and active enzyme (Amersham). Cells were grown in six-well culture dishes with 1 mL of serum-free medium, and after 24 hours of incubation, 100 μL of a 1:30 dilution of the medium was used for the ELISA assays. The cells remaining in the wells were lysed with 350 μL passive lysis buffer (PROMEGA®, Madison, Wis.), and 70 μl was used in a Bradford assay (BIO-RAD®, Hercules, Calif.) to determine the total protein content. The ng of MMP-1 protein from the ELISA results was normalized to μg total protein.
After initial neomycin selection and isolation of individual stable cell lines, MMP-1 mRNA and protein levels were determined using quantitative RT-PCR (qRT-PCR) and ELISA. MMP-1 mRNA levels were measured in RNA harvested from stably transfected cell lines after a 24 hour incubation in serum-free medium and were normalized to GAPDH mRNA levels. MMP-1 protein levels were measured in the serum-free media of the cell lines after 24 hours of incubation and were normalized to total protein content of the cells. The ELISA measured total (active and zymogen) forms of MMP-1 protein. […] To control for differences introduced into the cell lines during selection, these three individual cell lines for each group were pooled, and all subsequent experiments were performed on pooled cells.

[1] = system: interferon-responsive genes; experiment: Interferon response RT-PCR assay; format: cell-based, human; conditions: pooled stable MDA-231 cell lines
Method: Interferon Response RT-PCR Assay. RNA pooled from MDA-231 ells containing empty vector or the MMP-1 shRNA were reverse-transcribed with M-MLV reverse transcriptase (INVITROGEN™) according to the manufacturer's instructions. Briefly, 3 μg of RNA, 99 ng random hexamers, and 10 nmoles of dNTP were combined to a total volume of 12 μL. The mixture was incubated at 65° C. for 5 minutes and cooled to 4° C. Four μL of 5× […], 2 μL of 0.1 M DTT, and 1 μL of RNase inhibitor A (40 U/μL) were then added to the reaction and it was incubated at 37° C. for 2 minutes. One μL of M-MLV reverse transcriptase was added to the reaction and incubated at 25° C. for 10 minutes, 37° C. for 50 minutes and 70° C. for 15 minutes. The expression levels of 11 interferon-responsive genes and GAPDH were then estimated using semi-quantitative PCR and the human interferon-response MULTIGENE-12™ RT-PCR Profiling Kit (SuperArray Bioscience Co., Frederick, Md.).
To determine whether the MMP-1 shRNA was producing a shRNA-associated interferon response in the stable cell lines, the expression levels of 11 interferon-responsive genes was compared between pools of stable cell lines (Bridge, et al. (2003) Nat. Genet. 34:263-4).

MDA-231 cells = experiment: Tumorigenesis studies in nude mice, mammary fat pad injection of MDA-231 cells; format: in vivo
Method: Tumorigenesis Studies in Mice. Pooled MDA-231 stable cell lines containing either the empty vector or the MMP-1 shRNA (1×10^6 cells/100 μL HBSS) were injected into the 4th inguinal fat pad of twenty-one female, 6-week-old nude mice (NU/NU; Charles River Laboratories, Wilmington, Mass.) using 28 gauge×½″ single-use insulin needles. Mice were examined weekly until tumors were grossly apparent, then they were examined several times per week. Each tumor was measured twice with Vernier calipers, and tumor volume was calculated using the formula: 4/3πr^3. When the two measurements differed, the smaller radius measurement was squared and multiplied by the largest radius measurement. This number was then substituted for the r^3 portion of the formula.
The in vivo efficacy of the shRNA-mediated reduction of MMP-1 in the MDA-231 cells was analyzed. Nude mice were injected in the fourth inguinal mammary fat pad with MDA-231 cells containing either the empty vector or the MMP-1 shRNA. At week 6, tumors began to appear in the inguinal pad of several mice and at week 11, the mice were sacrificed.

B1: MMP-1 shRNA: Vector-expressed small hairpin RNA, SEQ ID NO:1 (sense) and SEQ ID NO:2 (antisense), specific to bases 234-252 of MMP-1 mRNA (nucleic acid)
sense: GATCCCCACCAGATGCTGAAACCCTGTTCAAGAGACAGGGTTTCAGCATCTGGTTTTTTGGAAA
antisense: AGCTTTTCCAAAAAACCAGATGCTGAAACCCTGTCTCTTGAACAGGGTTTCAGCATCTGGTGGG
modifications: the letters are possibly those of the target site
B1 was tested, and the “ng of MMP-1 protein per μg of total protein” value (shortened to “ng … per μg of total protein”) (MMP-1 protein; Group of cell lines D1, Y2, Y7, P=0.002 vs empty vector) was 0.46 ± 0.04 ng per μg of total protein, the “ng … per μg of total protein” value (MMP-1 protein; MDA-231 cell line D1) was 0.49 ± 0.03 ng per μg of total protein and the “ng … per μg of total protein” value (MMP-1 protein; MDA-231 cell line Y2) was 0.47 ± 0.01 ng per μg of total protein. For the same molecule, the “ng … per μg of total protein” value (MMP-1 protein; MDA-231 cell line Y7) was 0.42 ± 0.04 ng per μg of total protein, the “reduction in MMP-1 protein levels compared to empty vector cell lines” value (MMP-1 protein; three stable MDA-231 cell lines, 24 hour serum-free medium) was “greater than 90%” and the “interferon response overall (11 interferon-responsive genes)” value [1] was “no consistent upregulation of interferon-responsive gene expression”. For the same molecule, the “increase in expression of MxA and GBP1 compared to empty vector cell lines” value ([1]; semi-quantitative RT-PCR) was roughly 50%, the “average tumor size at time of sacrifice” value (MDA-231 cells; week 11, mean±s.e., n=10, p=0.027 vs empty vector) was 272±117 mm^3 and the “frequency of tumor formation” value (MDA-231 cells; week 11, n=23, p=0.11 vs empty vector (57%), Fisher's exact test) was 36%.
